Entries after “also recorded” stand apart in the source; their conditions may differ.
What was measured:
RPMI-8226 myeloma cells [1] = assay: Subcutaneous myeloma xenograft, RPMI-8226; type: in vivo, scid mice; settings: 2 mg/kg twice weekly i.p.; vs control IgG1
Protocol: (§1) Antibody treatment with 2 mg/kg BI-505 or control IgG1 was started at Day 1 and was continued on a twice-weekly intraperitoneal dosing regimen. Mice were sacrificed when tumor sizes reached the ethical limit.

NCI-H929 myeloma cells = assay: Subcutaneous myeloma xenograft, NCI-H929; type: in vivo, scid mice; settings: 2 mg/kg twice weekly i.p.; vs control IgG1
Protocol: as §1

RPMI-8226 myeloma cells [2] = assay: Disseminated RPMI-8226 model of multiple myeloma; type: in vivo, SCID mice; settings: 2 mg/kg i.v. twice weekly for 8 weeks, vs control mAb and standard of care drugs
Protocol: ARH-77 cells or RPMI-8226 were injected intraveniously into the SCID mice. (FIG. 6A) ARH-77 model. Animals received intravenous injections with antibody at 2 mg/kg or bortezomib (Velcade) at 0.5 mg/kg on Days 7, 10, 13, and 16 (as indicated by arrows in the graph). (FIG. 6B) RPMI-8226-model. BI-505 or control mAb was administered i.v at 2 mg/kg, twice weekly for 8 weeks, bortezomid, at 1 mg/kg, once weekly for 8 weeks, lenalidomide p.o with 2 mg/kg for 2 cycles consisting of 5 days of treatment and 2 days of wash out, melphalan i.v at 3 mg/kg, once weekly for 8 weeks, and dexamethasone (DXH) at 6 mg/kg/inj 3 times/week for 2 consecutive weeks. There were 6-10 mice per treatment group. Statistical significance was calculated using Log-rank Graphpad Prism software and determined at ***p<0.001. (FIG. 6C) To study the ICAM-1 level on human cells, the cells from different organs were stained and gated for CD38+/mCD45−/BI-505+. Left panel indicates the percentage of BI-505 positive cells in CD38+/mCD45 population and right panel the mean fluorescent intensity of the positive cells.
The anti-myeloma effect of BI-505 was examined in a disseminated model of multiple myeloma. The early and advanced disseminated model of multiple myeloma was performed at Oncodesign, Dijon, France. […]

[3] = Mouse serum antibody levels by ELISA at end of xenograft experiment; type: in vivo; settings: mouse serum at end of experimentation
Protocol: We next performed a dose-titration experiment to establish IgG B11 in vivo potency and the minimal dose achieving maximal anti-tumor activity, using the scid/ARH-77 model system. […] Mouse serum antibody trough concentrations were determined by ELISA at the end of experimentation. Trough antibody concentrations were then plotted against percent of maximal in vivo anti-tumour activity, and against percent of maximal ICAM-1 receptor occupancy and tumour cell PCD at corresponding antibody concentrations in vitro (FIGS. 3C, 3D, 3E, 3F and 3G). Strikingly, a near perfect correlation between antibody concentration and in vitro tumour cell receptor occupancy, in vitro tumor cell PCD, and in vivo anti-tumour activity was observed, consistent with ICAM-1 dependent direct cell cytotoxicity underlying in vivo anti-tumour activity.

[4] = tested on: ICAM-1 expressing tumor cell lines; assay: Complement-dependent cytotoxicity in tumor cell lines; type: cell-based; settings: panel of ICAM-1 expressing tumor cell lines; human serum
Protocol: Target cells were harvested and incubated in RPMI medium with antibodies at 5 μg/mL or at titrated concentrations between 0.01-100 μg/mL for 60 min on ice. Cells were thereafter washed and resuspended in cold medium before dispension into flow cytometry tubes. Treatments were performed in triplicates. Human serum, normal or heat-inactivated, (Sigma, Sweden) was added to tubes and the samples were incubated for 2 h at 37° C. After completed incubation ToPo-Pro-3 was added at a final concentration of 0.3 μM and cells were analyzed for membrane permeabilization using flow cytometry.

PBMC = PBMC cytokine release; type: cell-based

B1: IgG B11: fully human ICAM-1 antibody isolated from the n-CoDeR library; VH/VL sequences in FIG. 15 (SEQ ID NOs 8, 10) (antibody, V domains shown)
VH: EVQLLESGGGLVQPGGSLRLSCAASGFTFSNAWMSWVRQAPGKGLEWVAFIWYDGSNKYYADSVKGRFTISRDNSKNTLYLQMNSLRAEDTAVYYCARYSGWYFDYWGQGTLVTVSS
VL: QSVLTQPPSASGTPGQRVTISCTGSSSNIGAGYDVHWYQQLPGTAPKLLIYDNNNRPSGVPDRFSGSKSGTSASLAISGLRSEDEADYYCQSYDSSLSAWLFGGGTKLTVLG
modifications: B11 VH region; B11 VL region
**Q.** With B1 as the molecule, how does the “reduction of myeloma tumor growth” value (RPMI-8226 myeloma cells [1]) read?
**A.** Its value is 96%.

**Q.** And the “reduction of myeloma tumor growth” value (NCI-H929 myeloma cells)?
**A.** The value was 99%.

**Q.** What about the survival (RPMI-8226 myeloma cells [2]) of the same molecule?
**A.** Its survival is “significantly enhanced survival”.

**Q.** What about the survival (RPMI-8226 myeloma cells [2]; listed as BI-505) of the same molecule?
**A.** Its survival is “significantly enhances survival; also recorded: highly improved survival”.

**Q.** And the “In vivo IgG Levels (serum antibody titers)” value (“In vivo IgG Levels” for short) ([3]; dose 0.02 mg/kg)?
**A.** Its value is 0.06 ± 0.02 µg/mL.

**Q.** What about the “In vivo IgG Levels” value ([3]; dose 0.2 mg/kg) of the same molecule?
**A.** The value was 1.2 ± 0.4 µg/mL.

**Q.** And the “In vivo IgG Levels” value ([3]; dose 2 mg/kg)?
**A.** Its value is 20 ± 2.9 µg/mL.

**Q.** And the “induction of CDC” value [4]?
**A.** Its value is “did not induce CDC”.

**Q.** What about the cytokine release (PBMC; added in solution, resting or lipopolysaccharide pre-stimulated PBMCs) of the same molecule?
**A.** The cytokine release was “did not induce or enhance cytokine release”.

**Q.** What about the PBMC cytokine release (PBMC; immobilised by either protocol, or in solution with or without cross-linking reagent) of the same molecule?
**A.** Its PBMC cytokine release is “induce PBMC cytokine release”.

Source: US20160280788A1, “USE OF ANTIBODIES AGAINST ICAM-1 IN THE TREATMENT OF PATIENTS WITH RELAPSED CANCER” (BioInvent International AB, priority 2010, published 2016)
